The source of these data is patent US20200002439A1 (GENSUN BIOPHARMA, published 2020).

Test [1] has as its target T1, human PD-1 on transfected CHO-K1 cells (human, UniProt Q15116 25-288).
T1 construct: also called Human PD-1 transfected CHO-K1 cells
Kind of test: cell-based blocking assay, flow cytometry: binding of FITC labeled human PD-L1-Fc to human PD-1 transfected CHO-K1 cells is blocked.

Test [2] concerns the target T2, recombinant human VEGF 165 (human, UniProt P15692-4 27-191). Kind of test: cell-based or functional assay.
The target in test [3] is T2, recombinant human VEGF 165. Kind of test: cell-based or functional assay. This is another data set of the same source.
Test [4] has as its target T3, His tagged human Angiopoietin-2 (human, UniProt O15123 19-496, limits assumed).
T3 construct: Antigen of the bio-layer interferometry experiments; also called Ang-2; Ang2
T3 sequence (looked up): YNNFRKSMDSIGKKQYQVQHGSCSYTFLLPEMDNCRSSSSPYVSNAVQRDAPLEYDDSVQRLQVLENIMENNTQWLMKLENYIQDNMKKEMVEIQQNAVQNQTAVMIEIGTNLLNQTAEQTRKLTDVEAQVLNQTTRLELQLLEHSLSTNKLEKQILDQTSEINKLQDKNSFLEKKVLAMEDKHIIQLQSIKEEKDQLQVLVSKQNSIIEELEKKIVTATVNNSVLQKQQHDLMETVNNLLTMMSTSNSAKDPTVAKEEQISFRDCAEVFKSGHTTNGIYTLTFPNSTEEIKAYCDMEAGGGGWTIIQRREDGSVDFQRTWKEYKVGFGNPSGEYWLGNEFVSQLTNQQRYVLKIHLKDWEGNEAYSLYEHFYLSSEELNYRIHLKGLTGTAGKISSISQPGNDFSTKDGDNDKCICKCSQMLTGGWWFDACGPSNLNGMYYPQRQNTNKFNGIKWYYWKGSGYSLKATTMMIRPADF
Kind of test: bio-layer interferometry, rhAng2-His.

The target in test [5] is T4, recombinant human Ang2 (human, UniProt O15123 19-496).
T4 construct: also called Ang2 (R&D)
T4 sequence (looked up): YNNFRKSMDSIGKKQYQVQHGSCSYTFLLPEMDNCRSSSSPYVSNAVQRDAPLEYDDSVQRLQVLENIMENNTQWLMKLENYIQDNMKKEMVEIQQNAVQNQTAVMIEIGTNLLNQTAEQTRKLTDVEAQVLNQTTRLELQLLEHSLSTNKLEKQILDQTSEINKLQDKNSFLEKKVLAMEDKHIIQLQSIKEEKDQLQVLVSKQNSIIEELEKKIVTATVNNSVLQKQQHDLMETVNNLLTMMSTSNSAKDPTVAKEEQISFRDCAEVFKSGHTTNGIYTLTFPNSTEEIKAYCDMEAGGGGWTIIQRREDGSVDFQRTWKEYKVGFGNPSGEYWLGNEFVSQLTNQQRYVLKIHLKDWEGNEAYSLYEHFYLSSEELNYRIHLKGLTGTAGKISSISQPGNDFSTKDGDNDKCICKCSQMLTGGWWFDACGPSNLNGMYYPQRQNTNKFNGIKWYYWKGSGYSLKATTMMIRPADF
Kind of test: blocking ELISA: Ang2 coated on the plate, binding of recombinant human Tie2 is blocked.

Test [6] addresses T5, His tagged human PD-1 (human, UniProt Q15116 25-170).
T5 construct: also called His tagged human PD-I; PD-1 protein
Kind of test: bio-layer interferometry, PD-1-His (R&D).

Test [7] has as its target T2, recombinant human VEGF 165. Kind of test: bio-layer interferometry, rhVEGF165.
Test [8] addresses T5, His tagged human PD-1. Kind of test: bio-layer interferometry, PD-1-His (R&D); column head prints KD (nM) but the cell carries E-09, and Kd/Ka of the same row gives this number in M.

T5 sequence (Q15116 25-170 limits assumed): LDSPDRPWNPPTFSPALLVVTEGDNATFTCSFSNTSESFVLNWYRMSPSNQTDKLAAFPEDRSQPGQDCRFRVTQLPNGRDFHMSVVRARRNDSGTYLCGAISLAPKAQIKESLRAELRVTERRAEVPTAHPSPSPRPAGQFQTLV
T2 sequence (P15692 other isoform, or with tags, fused parts or gaps limits assumed): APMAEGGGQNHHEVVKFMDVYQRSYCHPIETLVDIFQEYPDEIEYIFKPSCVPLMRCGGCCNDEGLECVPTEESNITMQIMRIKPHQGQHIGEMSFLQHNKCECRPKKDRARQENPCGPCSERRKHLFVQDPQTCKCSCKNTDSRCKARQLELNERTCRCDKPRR
T1 sequence (Q15116 25-288 limits assumed): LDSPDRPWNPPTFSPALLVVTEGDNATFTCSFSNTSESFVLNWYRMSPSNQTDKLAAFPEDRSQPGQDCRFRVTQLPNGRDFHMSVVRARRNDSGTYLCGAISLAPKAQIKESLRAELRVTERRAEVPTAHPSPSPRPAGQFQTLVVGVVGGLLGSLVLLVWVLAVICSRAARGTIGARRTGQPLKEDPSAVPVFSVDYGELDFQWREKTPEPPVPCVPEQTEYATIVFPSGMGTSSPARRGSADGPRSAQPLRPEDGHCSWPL

B1: 2P17 (antibody, V domains shown)
VH: QVQLVQSGAEVKKPGASVKVSCKASGYTFTSYYIHWVRQAPGQGLEWMGWIFPGSGNSKYNENFKGRVTLTADTSTSTVYMELSSLRSEDTAVYYCASETYDYGDYWGQGTLVTVSS
VL: DIQMTQSPSFLSASVGDRVTITCKASQNVGTNVAWYQQKPGKAPKALIYSASYRYSGVPSRFSGSGSGTEFTLTISSLQPEDFATYYCQQYYSYPYTFGQGTKLEIK
notes: also called PD-06; parental antibody 2P17
In the case of B1, in test [1], the IC50 came to 370 pM.

B2: Bi-ZP-2 (bispecific antibody, human IgG1, kappa, N297A)
heavy: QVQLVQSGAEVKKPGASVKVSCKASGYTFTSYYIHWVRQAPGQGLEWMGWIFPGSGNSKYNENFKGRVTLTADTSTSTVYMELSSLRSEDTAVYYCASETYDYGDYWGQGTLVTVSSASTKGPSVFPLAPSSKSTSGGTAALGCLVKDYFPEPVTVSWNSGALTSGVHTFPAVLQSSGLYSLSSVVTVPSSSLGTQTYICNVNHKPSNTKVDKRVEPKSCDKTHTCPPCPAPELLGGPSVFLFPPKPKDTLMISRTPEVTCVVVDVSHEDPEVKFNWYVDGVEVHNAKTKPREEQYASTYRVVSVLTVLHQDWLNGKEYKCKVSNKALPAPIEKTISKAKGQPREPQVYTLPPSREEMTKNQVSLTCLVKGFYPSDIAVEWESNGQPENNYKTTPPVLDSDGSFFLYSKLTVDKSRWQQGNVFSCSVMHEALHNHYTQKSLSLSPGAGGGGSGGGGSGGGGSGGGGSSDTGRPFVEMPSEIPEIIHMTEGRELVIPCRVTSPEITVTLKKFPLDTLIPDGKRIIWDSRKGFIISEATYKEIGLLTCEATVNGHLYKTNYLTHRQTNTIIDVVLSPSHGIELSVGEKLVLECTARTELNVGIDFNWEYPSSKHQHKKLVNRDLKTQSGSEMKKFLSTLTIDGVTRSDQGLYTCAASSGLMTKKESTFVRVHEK
light: DIQMTQSPSFLSASVGDRVTITCKASQNVGTNVAWYQQKPGKAPKALIYSASYRYSGVPSRFSGSGSGTEFTLTISSLQPEDFATYYCQQYYSYPYTFGQGTKLEIKRTVAAPSVFIFPPSDEQLKSGTASVVCLLNNFYPREAKVQWKVDNALQSGNSQESVTEQDSKDSTYSLSSTLTLSKADYEKHKVYACEVTHQGLSSPVTKSFNRGEC
For B2, the “IC50 (read off the curve)” value in test [2] was about 100 pM. The “IC50 (VEGF-induced luciferase signal, cell based VEGF neutralization assay on VEGFR-2 reporter cells)” value in test [3] turned out to be 140 pM.

B3: TS-ZPT-3L(2P17) (other)
heavy: QVQLVQSGAEVKKPGASVKVSCKASGYTFTSYYIHWVRQAPGQGLEWMGWIFPGSGNSKYNENFKGRVTLTADTSTSTVYMELSSLRSEDTAVYYCASETYDYGDYWGQGTLVTVSSASTKGPSVFPLAPCSRSTSESTAALGCLVKDYFPEPVTVSWNSGALTSGVHTFPAVLQSSGLYSLSSVVTVPSSSLGTKTYTCNVDHKPSNTKVDKRVESKYGPPCPPCPAPEFLGGPSVFLFPPKPKDTLMISRTPEVTCVVVDVSQEDPEVQFNWYVDGVEVHNAKTKPREEQFNSTYRVVSVLTVLHQDWLNGKEYKCKVSNKGLPSSIEKTISKAKGQPREPQVYTLPPSQEEMGGAQQEECEWDPWTCEHMGSGSATGGSGSTASSGSGSATHQEECEWDPWTCEHMGGTKNQVSLTCLVKGFYPSDIAVEWESNGQPENNYKTTPPVLDSDGSFFLYSRLTVDKSRWQEGNVFSCSVMHEALHNHYTQKSLSLSLGKGGGGSGGGGSGGGGSSDTGRPFVEMYSEIPEIIHMTEGRELVIPCRVTSPNITVTLKKFPLDTLIPDGKRIIWDSRKGFIISNATYKEIGLLTCEATVNGHLYKTNYLTHRQTNTIIDVVLSPSHGIELSVGEKLVLNCTARTELNVGIDFNWEYPSSKHQHKKLVNRDLKTQSGSEMKKFLSTLTIDGVTRSDQGLYTCAASSGLMTKKNSTFVRVHEK
light: DIQMTQSPSFLSASVGDRVTITCKASQNVGTNVAWYQQKPGKAPKALIYSASYRYSGVPSRFSGSGSGTEFTLTISSLQPEDFATYYCQQYYSYPYTFGQGTKLEIKRTVAAPSVFIFPPSDEQLKSGTASVVCLLNNFYPREAKVQWKVDNALQSGNSQESVTEQDSKDSTYSLSSTLTLSKADYEKHKVYACEVTHQGLSSPVTKSFNRGEC
B3: the Kd in test [4] is 700 pM; in test [7], 4.9 pM; in test [8], 3840 pM. Besides, the koff in test [4] came to 9.05e-05 s⁻¹; in test [6] it was 0.00147 s⁻¹; in test [7], 5e-06 s⁻¹. In addition, the kon stood at 130000 M⁻¹ s⁻¹ in test [4], 382000 M⁻¹ s⁻¹ in test [6] and 1.02e+06 M⁻¹ s⁻¹ in test [7]. Also, the IC50 is 600 pM in test [5] and 650 pM in test [1].

B4: TS-ZPT-3S(2P17) (other)
heavy: QVQLVQSGAEVKKPGASVKVSCKASGYTFTSYYIHWVRQAPGQGLEWMGWIFPGSGNSKYNENFKGRVTLTADTSTSTVYMELSSLRSEDTAVYYCASETYDYGDYWGQGTLVTVSSASTKGPSVFPLAPCSRSTSESTAALGCLVKDYFPEPVTVSWNSGALTSGVHTFPAVLQSSGLYSLSSVVTVPSSSLGTKTYTCNVDHKPSNTKVDKRVESKYGPPCPPCPAPEFLGGPSVFLFPPKPKDTLMISRTPEVTCVVVDVSQEDPEVQFNWYVDGVEVHNAKTKPREEQFNSTYRVVSVLTVLHQDWLNGKEYKCKVSNKGLPSSIEKTISKAKGQPREPQVYTLPPSQEEMGGQEECEWDPWTCEHMGGTKNQVSLTCLVKGFYPSDIAVEWESNGQPENNYKTTPPVLDSDGSFFLYSRLTVDKSRWQEGNVFSCSVMHEALHNHYTQKSLSLSLGKGGGGSGGGGSGGGGSSDTGRPFVEMYSEIPEIIHMTEGRELVIPCRVTSPNITVTLKKFPLDTLIPDGKRIIWDSRKGFIISNATYKEIGLLTCEATVNGHLYKTNYLTHRQTNTIIDVVLSPSHGIELSVGEKLVLNCTARTELNVGIDFNWEYPSSKHQHKKLVNRDLKTQSGSEMKKFLSTLTIDGVTRSDQGLYTCAASSGLMTKKNSTFVRVHEK
light: DIQMTQSPSFLSASVGDRVTITCKASQNVGTNVAWYQQKPGKAPKALIYSASYRYSGVPSRFSGSGSGTEFTLTISSLQPEDFATYYCQQYYSYPYTFGQGTKLEIKRTVAAPSVFIFPPSDEQLKSGTASVVCLLNNFYPREAKVQWKVDNALQSGNSQESVTEQDSKDSTYSLSSTLTLSKADYEKHKVYACEVTHQGLSSPVTKSFNRGEC
notes: Trispecific antagonist: 2P17 variable domains, single copy of the trebananib peptide within CH3, aflibercept domain at the carboxy terminus by a 3xG4S linker
In the case of B4, the Kd was 650 pM in test [4], 5.2 pM in test [7] and 3710 pM in test [8]. For the same molecule, the results for the koff in test [4], in test [6] and in test [7] were 8.66e-05 s⁻¹, 0.00146 s⁻¹ and 5.03e-06 s⁻¹, respectively. The results for the kon in test [4], in test [6] and in test [7] were 134000 M⁻¹ s⁻¹, 394000 M⁻¹ s⁻¹ and 974000 M⁻¹ s⁻¹, respectively. Besides, the results for the IC50 in test [5] and in test [1] were 9340 pM and 370 pM, respectively.

B5: TS-ZPT-3S(2P16) (other)
chain 1: QVQLVQSGAEVKKPGASVKVSCKASGYTFTTYYIYWVRQAPGQGLEWMGGINPGNGGTNFNEKFKIRVTMTRDTSISTAYMELSSLRSEDTAVYYCARRYHGYDGGLDYWGQGTLVTVSSASTKGPSVFPLAPCSRSTSESTAALGCLVKDYFPEPVTVSWNSGALTSGVHTFPAVLQSSGLYSLSSVVTVPSSSLGTKTYTCNVDHKPSNTKVDKRVESKYGPPCPPCPAPEFLGGPSVFLFPPKPKDTLMISRTPEVTCVVVDVSQEDPEVQFNWYVDGVEVHNAKTKPREEQFNSTYRVVSVLTVLHQDWLNGKEYKCKVSNKGLPSSIEKTISKAKGQPREPQVYTLPPSQEEMGGQEECEWDPWTCEHMGGTKNQVSLTCLVKGFYPSDIAVEWESNGQPENNYKTTPPVLDSDGSFFLYSRLTVDKSRWQEGNVFSCSVMHEALHNHYTQKSLSLSLGKGGGGSGGGGSGGGGSSDTGRPFVEMYSEIPEIIHMTEGRELVIPCRVTSPNITVTLKKFPLDTLIPDGKRIIWDSRKGFIISNATYKEIGLLTCEATVNGHLYKTNYLTHRQTNTIIDVVLSPSHGIELSVGEKLVLNCTARTELNVGIDFNWEYPSSKHQHKKLVNRDLKTQSGSEMKKFLSTLTIDGVTRSDQGLYTCAASSGLMTKKNSTFVRVHEK
chain 2: DIVLTQSPASLAVSPGQRATITCRASKSVSTSGFSYIHWYQQKPGQPPKLLIYLASNLESGVPARFSGSGSGTDFTLTINPVEANDTANYYCQHTWELPNTFGGGTKVEIKRTVAAPSVFIFPPSDEQLKSGTASVVCLLNNFYPREAKVQWKVDNALQSGNSQESVTEQDSKDSTYSLSSTLTLSKADYEKHKVYACEVTHQGLSSPVTKSFNRGEC
In test [6], B5 showed a koff of 0.00159 s⁻¹ and a kon of 335000 M⁻¹ s⁻¹. This molecule also registered an IC50 in test [1] of 430 pM. In test [7], the Kd was 6.3 pM, the koff came to 4.31e-06 s⁻¹ and the kon is 683000 M⁻¹ s⁻¹. In test [8], this molecule displayed a Kd of 4760 pM.
